Assay results taken from publication PMC12847411.

Assays:
Test in all cases: BLI
[1] = target: AZD8895
[2] = target: AZD8895-450
[3] = target: REGN10933
[4] = target: AZD8895-275
[5] = target: MW05
[6] = target: AZD8895-25
[7] = target: Sotrovimab
[8] = target: REGN10987
Chain of REGN10987 (heavy, as listed by the source, chain 1 of 2): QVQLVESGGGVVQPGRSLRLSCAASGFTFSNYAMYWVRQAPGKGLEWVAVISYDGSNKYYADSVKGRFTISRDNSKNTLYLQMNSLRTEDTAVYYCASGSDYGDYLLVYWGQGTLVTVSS
Chain of REGN10987 (light, as listed by the source, chain 2 of 2): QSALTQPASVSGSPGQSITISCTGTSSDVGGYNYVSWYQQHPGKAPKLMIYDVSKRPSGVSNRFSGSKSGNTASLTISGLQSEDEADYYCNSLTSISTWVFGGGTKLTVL

Chain of AZD8895-450 (heavy, as listed by the source, chain 1 of 2): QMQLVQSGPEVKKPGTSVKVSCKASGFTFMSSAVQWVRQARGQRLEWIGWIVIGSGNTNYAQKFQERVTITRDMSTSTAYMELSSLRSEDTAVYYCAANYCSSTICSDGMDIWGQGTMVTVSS
Chain of AZD8895-450 (light, as listed by the source, chain 2 of 2): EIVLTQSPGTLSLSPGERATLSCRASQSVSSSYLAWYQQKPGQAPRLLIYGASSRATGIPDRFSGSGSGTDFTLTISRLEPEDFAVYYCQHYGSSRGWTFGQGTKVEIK
Chain of MW05 (light, as listed by the source): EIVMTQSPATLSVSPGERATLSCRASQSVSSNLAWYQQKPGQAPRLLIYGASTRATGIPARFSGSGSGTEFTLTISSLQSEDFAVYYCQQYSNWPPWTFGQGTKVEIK
Chain of AZD8895 (heavy, as listed by the source, chain 1 of 2): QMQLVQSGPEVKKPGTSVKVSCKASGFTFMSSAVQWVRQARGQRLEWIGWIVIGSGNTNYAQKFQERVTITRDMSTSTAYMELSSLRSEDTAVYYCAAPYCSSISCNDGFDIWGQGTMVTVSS
Chain of REGN10933 (heavy, as listed by the source, chain 1 of 2): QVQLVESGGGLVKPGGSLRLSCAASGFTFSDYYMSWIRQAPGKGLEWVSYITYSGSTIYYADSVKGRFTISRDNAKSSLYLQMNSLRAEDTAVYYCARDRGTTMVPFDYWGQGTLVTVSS
Chain of REGN10933 (light, as listed by the source, chain 2 of 2): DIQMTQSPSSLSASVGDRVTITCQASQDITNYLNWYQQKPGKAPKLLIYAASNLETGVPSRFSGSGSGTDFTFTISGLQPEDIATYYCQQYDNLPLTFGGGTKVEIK
Chain of AZD8895-275 (heavy, as listed by the source, chain 1 of 2): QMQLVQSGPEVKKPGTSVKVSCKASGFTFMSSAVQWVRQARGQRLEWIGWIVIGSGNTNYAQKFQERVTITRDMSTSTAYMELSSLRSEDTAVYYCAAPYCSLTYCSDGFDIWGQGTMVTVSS
Chain of AZD8895-25 (heavy, as listed by the source, chain 1 of 2): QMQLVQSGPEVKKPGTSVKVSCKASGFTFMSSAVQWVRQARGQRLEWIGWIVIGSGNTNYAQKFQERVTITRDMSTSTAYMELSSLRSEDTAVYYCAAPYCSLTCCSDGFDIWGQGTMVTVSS

SARS-CoV-2 spike RBD protein (Sino Biological, 40592-V08H) (from UniProt P0DTC2) (domain or fragment)
Kd [1]: 6.71 nM
Kd [2]: 7.33 nM
Kd [3]: 6.7 nM
Kd [4]: 5.17 nM
Kd [5]: 1.89 nM
Kd [6]: 4.81 nM
Kd [7]: 1.42 nM
Kd [8]: 5.92 nM
